Results on 3 molecules are retold here after patent publication US20240368250A1 (Ablynx, published 2024).

Assay [1] addresses T1, Human FcRn (biotinylated human FcRn) (human, UniProt P61769 21-119).
T1 construct: Biotinylated human FcRn captured on a Series S Sensor Chip SA; also called human neonatal Fc receptor; hFcRn
As to the kind of experiment: SPR Biacore 8K+, biotinylated hFcRn on SA chip (~500-600 RU), pH 6.0, bivalent analyte fit (ka1). (In SPR one partner is held on a chip, and binding of the other changes the refractive index at the surface.)

Assay [2] addresses T1, Human FcRn (biotinylated human FcRn). As to the kind of experiment: SPR Biacore 8K+, biotinylated hFcRn on SA chip (~500-600 RU), pH 6.0, bivalent analyte fit.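 Also: analytes were Fc proteins binding to biotinylated human FcRn captured on a Series S streptavidin sensor chip.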
In assay [3] the target is T2, Human serum albumin (HSA; Sigma-Aldrich Cat No. A8763) (human, UniProt P02768 25-609). The assay can be described thus: SPR Biacore 8K+, HSA on C1 chip, pH 7.4, off-rate column.
For assay [4], the target named is T3, Mouse serum albumin (MSA; Albumin Bioscience Cat No. 2601) (mouse, UniProt P07724 25-608). The assay can be described thus: SPR Biacore 8K+, MSA on C1 chip, pH 7.4, off-rate column.
Assay [5] deals with T1, Human FcRn (biotinylated human FcRn). The assay can be described thus: SPR Biacore 8K+, biotinylated hFcRn on SA chip (~500-600 RU), pH 6.0, bivalent analyte fit (kd1).
For assay [6] the target is unchanged. As to the kind of experiment: SPR Biacore 8K+, biotinylated hFcRn on SA chip (~500-600 RU), pH 6.0, bivalent analyte fit (KD1).
Assay [7] addresses T3, Mouse serum albumin (MSA; Albumin …). As to the kind of experiment: SPR Biacore 8K+, MSA on C1 chip, pH 7.4, bivalent analyte fit (kd1).
Assay [8] deals with T2, Human serum albumin (HSA; Sigma-Aldrich …). The assay can be described thus: SPR Biacore 8K+, HSA on C1 chip, pH 7.4, bivalent analyte fit (ka1).
The target is the same in assay [9]. The assay can be described thus: SPR Biacore 8K+, HSA on C1 chip, pH 7.4, bivalent analyte fit (KD1).
For assay [10], the target named is T3, Mouse serum albumin (MSA; Albumin …). As to the kind of experiment: SPR Biacore 8K+, MSA on C1 chip, pH 7.4, bivalent analyte fit (KD1).
For assay [11] the target is unchanged. As to the kind of experiment: SPR Biacore 8K+, MSA on C1 chip, pH 7.4, bivalent analyte fit (ka1).
Assay [12] deals with T2, Human serum albumin (HSA; Sigma-Aldrich …). As to the kind of experiment: SPR Biacore 8K+, HSA on C1 chip, pH 7.4, bivalent analyte fit (kd1).
Assay [13] has as its target T3, Mouse serum albumin (MSA; Albumin …). The assay can be described thus: SPR Biacore 8K+, MSA on C1 chip, pH 7.4, bivalent analyte fit (kd1). This is another data set of the same source.
The target of assay [14] is T1, Human FcRn (biotinylated human FcRn). As to the kind of experiment: SPR Biacore 8K+, biotinylated hFcRn on SA chip (~700 RU), pH 6.0, bivalent analyte fit.
For assay [15] the target is unchanged. As to the kind of experiment: SPR Biacore 8K+, biotinylated hFcRn on SA chip (~700 RU), pH 6.0, bivalent analyte fit (KD1).
The target is the same in assay [16]. As to the kind of experiment: SPR Biacore 8K+, biotinylated hFcRn on SA chip (~700 RU), pH 6.0, bivalent analyte fit (ka1).
Assay [17] deals with T3, Mouse serum albumin (MSA; Albumin …). As to the kind of experiment: SPR Biacore 8K+, MSA on C1 chip, pH 7.4, bivalent analyte fit (KD1). This is another data set of the same source.
In assay [18] the target is T2, Human serum albumin (HSA; Sigma-Aldrich …). The assay can be described thus: SPR Biacore 8K+, HSA on C1 chip, pH 7.4, bivalent analyte fit (ka1). This is another data set of the same source.
Assay [19] shares this target. As to the kind of experiment: SPR Biacore 8K+, HSA on C1 chip, pH 7.4, bivalent analyte fit (kd1). The source holds these as a separate data set.
The target in assay [20] is T1, Human FcRn (biotinylated human FcRn). As to the kind of experiment: SPR Biacore 8K+, biotinylated hFcRn on SA chip (~700 RU), pH 6.0, bivalent analyte fit (kd1).
The target in assay [21] is T3, Mouse serum albumin (MSA; Albumin …). The assay can be described thus: SPR Biacore 8K+, MSA on C1 chip, pH 7.4, bivalent analyte fit (ka1). This is another data set of the same source.
Assay [22] deals with T2, Human serum albumin (HSA; Sigma-Aldrich …). As to the kind of experiment: SPR Biacore 8K+, HSA on C1 chip, pH 7.4, bivalent analyte fit (KD1). The source holds these as a separate data set.

Read-outs that look alike come from different tables or passages of the source.

B1: TPP-66150 (Fc fusion)
chain 1: DVQLVESGGGVVQAGGSLSISCAASGGSLSNYVLGWFRQAPGKEREFVAAINWRGDITIGPPNVEGRFTISRDNAKNTGYLQMNSLAPDDTALYYCGAGTPLNPGAYIYDWSYDYWGRGTLVTVSSDKTHTCPPCPAPEAAGGPSVFLFPPKPKDTLMISRTPEVTCVVVDVSQEDPEVQFNWYVDGVEVHNAKTKPREEQFNSTYRVVSVLTVLHQDWLNGKEYKCKVSNKGLPSSIEKTISKAKGQPREPQVYTLPPCQEEMTKNQVSLWCLVKGFYPSDIAVEWESNGQPENNYKTTPPVLDSDGSFFLYSKLTVDKSRWQEGNVFSCSVMHEALHNHYTQKSLSLSLG
chain 2: DVQLVESGGGVVQAGGSLSISCAASGGSLSNYVLGWFRQAPGKEREFVAAINWRGDITIGPPNVEGRFTISRDNAKNTGYLQMNSLAPDDTALYYCGAGTPLNPGAYIYDWSYDYWGRGTLVTVSSDKTHTCPPCPAPEAAGGPSVFLFPPKPKDTLMISRTPEVTCVVVDVSQEDPEVQFNWYVDGVEVHNAKTKPREEQFNSTYRVVSVLTVLHQDWLNGKEYKCKVSNKGLPSSIEKTISKAKGQPREPQVCTLPPSQEEMTKNQVSLSCAVKGFYPSDIAVEWESNGQPENNYKTTPPVLDSDGSFFLVSKLTVDKSRWQEGNVFSCSVMHEALHNRFTQKSLSLSLGGGGGSGGGGSGGGGSGGGGSGGGGSGGGGSGGGGSDLGKKLLEAARAGQDDEVRELLKAGADVNAKDYFSHTPLHLAARNGHLKIVEVLLKAGADVNAKDFAGKTPLHLAANEGHLEIVEVLLKAGADVNAQDIFGKTPADIAADAGHEDIAEVLQKAA
As a reminder, the kon is the rate constant with which the complex forms. Lower therefore signals slow association. A word on the koff: it is a measure of how fast the partners let go of each other. A lower koff goes with a long-lived complex. In assay [1], B1 had an on-rate constant (kon) of 73900 M⁻¹ s⁻¹. In addition, in assay [2], the KD2 is 6.37 M, the ka2 was 3.02e-05 1/RUs and the kd2 stood at 0.000192 s⁻¹. Also, in assay [3], the binding result was “binds”. For the same molecule, the binding result in [4] was “binds”. In assay [5], the koff is 0.0859 s⁻¹. The same molecule registered a Kd in assay [6] of 1160 nM.

B2: TPP-66177 (Fc fusion)
chain: DVQLVESGGGVVQAGGSLSISCAASGGSLSNYVLGWFRQAPGKEREFVAAINWRGDITIGPPNVEGRFTISRDNAKNTGYLQMNSLAPDDTALYYCGAGTPLNPGAYIYDWSYDYWGRGTLVTVSSDKTHTCPSCPAPEAAGGPSVFLFPPKPKDTLMISRTPEVTCVVVDVSQEDPEVQFNWYVDGVEVHNAKTKPREEQFNSTYRVVSVLTVLHQDWLNGKEYKCKVSNKGLPSSIEKTISKAKGQPREPQVYTLPPSQEEMTKNQVSLTCLVKGFYPSDIAVEWESNGQPENNYKTTPPVLDSDGSFFLYSKLTVDKSRWQEGNVFSCSVMHEALHNHYTQKSLSLSLGGGGGSGGGGSGGGGSGGGGSGGGGSGGGGSGGGGSEVQLVESGGGVVQPGGSLRLSCAASGFTFRSFGMSWVRQAPGKGPEWVSSISGSGSDTLYADSVKGRFTISRDNSKNTLYLQMNSLRPEDTALYYCTIGGSLSRSSQGTLVTVSSA
notes: Symmetrical IgG4 FALA Fc fusion without knob-in-hole mutations, two C-terminal ALB23002 via 35GS; also called symmetrical ALB23002 ISVD-Fc polypeptide
In the case of B2, the koff in assay [7] turned out to be 0.000404 s⁻¹; in assay [12], 0.000776 s⁻¹; in assay [5], 0.0872 s⁻¹. Further, the kon in [8] amounted to 54300 M⁻¹ s⁻¹; in assay [1], 51500 M⁻¹ s⁻¹; in assay [11], 45900 M⁻¹ s⁻¹. Besides, the Kd came to 14.3 nM in [9], 8.8 nM in assay [10] and 1690 nM in [6]. The molecule also yielded a KD2 in assay [2] of 3.64 M. Also, in assay [2], the ka2 is 4.07e-05 1/RUs. The molecule further gave a kd2 in assay [2] of 0.000148 s⁻¹.

B3: T-0263-00_TP123 (antibody, human IgG1, kappa)
heavy 1: not shown
heavy 2: EVQLVESGGGLVQPGGSLRLSCAASGFNIRDTYIHWVRQAPGKGLEWVARIYPTQGYTRYADSVKGRFTISADTSKNTAYLQMNSLRAEDTAVYYCSRWGGEGFYAMDYWGQGTLVTVSSASTKGPSVFPLAPSSKSTSGGTAALGCLVKDYFPEPVTVSWNSGALTSGVHTFPAVLQSSGLYSLSSVVTVPSSSLGTQTYICNVNHKPSNTKVDKKVEPKSCDKTHTCPPCPAPELLGGPSVFLFPPKPKDTLMISRTPEVTCVVVDVSHEDPEVKFNWYVDGVEVHNAKTKPREEQYNSTYRVVSVLTVLHQDWLNGKEYKCKVSNKALPAPIEKTISKAKGQPREPQVCTLPPSRDELTKNQVSLSCAVKGFYPSDIAVEWESNGQPENNYKTTPPVLDSDGSFFLVSKLTVDKSRWQQGNVFSCSVMHEALHNRFTQKSLSLSPGGGGGSGGGSEVQLVESGGGVVQPGGSLRLSCAASGFTFRSFGMSWVRQAPGKGPEWVSSISGSGSDTLYADSVKGRFTISRDNSKNTLYLQMNSLRPEDTALYYCTIGGSLSRSSQGTLVTVSSA
light: not shown
notes: Full-length IgG1 knob-in-hole with two C-terminal ALB23002-A (9GS), one on each heavy chain
B3: the koff in assay [13] was found to be 0.0344 s⁻¹; in [19], 0.00253 s⁻¹; in assay [20], 0.15 s⁻¹. Besides, the ka2 in assay [14] was 1.7e-05 1/RUs. For the same molecule, the kd2 in [14] worked out at 0.00059 s⁻¹. The Kd in assay [15] was found to be 2400 nM; in [17], 560 nM; in assay [22] it was 67.4 nM. The results for the kon in [16], in assay [18] and in assay [21] were 63000 M⁻¹ s⁻¹, 37500 M⁻¹ s⁻¹ and 61400 M⁻¹ s⁻¹, respectively.
